Assay [1] has as its target T1, recombinant IsdB (iron-regulated surface determinant protein B), without signal peptide and sorting signal (Staphylococcus aureus, UniProt A6QG30).
T1 construct: source: E. coli BL21(DE3), pET15b, purified (HiTrap Talon column)
Nature of the assay: BLI. The note with it: both partners purified.

The target in assay [2] is T1, recombinant IsdB (iron-regulated …). Nature of the assay: ELISA. Particulars: both partners purified.

Numbering of substitutions follows the chain as printed.

The source of these data is publication PMC6805997 (mBio, 2019).

T1 sequence (A6QG30 41-613): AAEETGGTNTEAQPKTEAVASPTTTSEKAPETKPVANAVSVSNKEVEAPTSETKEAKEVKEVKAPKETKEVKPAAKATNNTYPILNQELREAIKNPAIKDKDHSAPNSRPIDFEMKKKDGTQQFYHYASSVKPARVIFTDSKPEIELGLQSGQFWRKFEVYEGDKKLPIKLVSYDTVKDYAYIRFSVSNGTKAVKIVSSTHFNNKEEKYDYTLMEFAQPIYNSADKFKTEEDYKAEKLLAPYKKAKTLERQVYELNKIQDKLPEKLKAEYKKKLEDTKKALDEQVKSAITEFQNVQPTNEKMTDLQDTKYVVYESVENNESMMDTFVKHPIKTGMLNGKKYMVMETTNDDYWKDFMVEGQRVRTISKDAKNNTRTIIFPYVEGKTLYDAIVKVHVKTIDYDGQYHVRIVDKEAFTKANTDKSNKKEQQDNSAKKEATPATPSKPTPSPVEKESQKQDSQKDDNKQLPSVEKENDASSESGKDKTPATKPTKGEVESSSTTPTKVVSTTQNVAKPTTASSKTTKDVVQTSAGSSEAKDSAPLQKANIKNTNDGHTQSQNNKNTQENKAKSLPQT

B1: STAU-399 clonal variant 6 (recombinant mAb) (antibody, V domains shown)
VH: HVQLVQSGAEVKKPGSSLKVSCKGSGGKLRGYGFSWGRQAPGQGLEWMGVIIPIFGAPTYAQKFQGRVTLAADESNNTVFMELSSLRSEDTAVYYCARDWPSITVAVDATNYGMDVWGQGTTVTVSS
VL: QSALTQPRSVSGSPGQSVTISCTGTSNDVGYYDHVSWYQQHPGKAPKFIIYDVSKRPSGVPDRFSGSKSDNTASLTISGLQAEDEADYYCCSFAGSYTYVFGTGTKVTVL
notes: source: expressed recombinantly with the original light chain and purified
Turning to B1, the “fold lower affinity than the hybridoma IgG” value in assay [1] was 27 fold. Moreover, in assay [2], the “fold lower EC50 value than the hybridoma IgG” value amounted to 18 fold.

B2: STAU-399 mAb (hybridoma IgG) (antibody, V domains shown)
VH: B1 VH with H1Q, G24V, K28N, G31S, F34I, G37V, A57T, E74D, T78I, T122L
VL: B1 VL
notes: also called STAU-399 IgG
For the molecule B2, in assay [1], the binding result is “binds”.

B3: STAU-229 clonal variant 3 (recombinant mAb) (antibody, V domains shown)
VH: EVQLVQSGAEVKKPGATVKIPCQVSGYTFTDYYIHWVQQAPGKGLEWMGLVDPEDGETRYAEKFQGRVTITADTSTDTAYMEMSSLTSEDAAVYYCAKPHCTTSSCQRVSGYYFGMDVWGQGTTVTVSS
VL: QSALTQPPSASGSPGQSVTISCTGSSNDVGDYNFVSWYQQHPGKPPKLMIYEVTKRPSGVPDRFFGSKSGNTASLTVSGLQADDEADYYCSSYAGGNSVVFGGGTKLTVL
notes: as for B1
For orientation: Kd means the equilibrium constant for the complex coming apart. With B3, in assay [1], the Kd is 1.44 nM and the “fold lower avidity than the hybridoma IgG” value is roughly 7 times.

B4: STAU-229 mAb (hybridoma cell line-expressed IgG) (antibody, V domains shown)
VH: EVQLVQSGAEVKKPGATMKISCKVSGYPFTDYYMHWVQQAPGKGLEWMGLIDPEDGETNYAEKFQGRVTITADTSTDTVYMELSSLRSEDTAVYFCAKPHCSSRTCQRVSGYYFGMDVWGQGTLVTVSS
VL: B3 VL
notes: also called STAU-229 IgG; hybridoma IgG
Take B4: the binding result in assay [1] is “binds”.

B5: STAU-281 mAb (IgG) (antibody, V domains shown)
VH: QVQLVQSGAEVKRPGSSVRVSCKDSGDSFRRYVINWVRQAPGQGLEWMGGIIPIFDKAKSVQKFQDRLTITADESTSTSYMELSSLTSEDTAVYYCARKEDGRRDDVFDIWGQGTLVTVSS
VL: EIVMTQSPATLSVSLGERATLSCRASHSVGSSLAWYQQKPGLAPRLLIYGVSTRATGIPARFSGSGSATEFTLTISSLQSEDLAAYHCQQYDNWPFTFGQGTKLEIK
As for B5, the binding result in assay [1] was “binds”.

B6: STAU-307 clonal variant 1 (antibody, V domains shown)
VH: QAQLMQSGAEVKKTGSSVKVSCTASGGTFNTNDLMWVRQAPGQGLEWMGGIVPVFGKPKYAKKFHGRLIITADEYMTTVYMELTSLTFDDTAIYFCARSGSTESPIQDIDFWGQGTQVTVSS
VL: SYVLTQPPSVSVAPGQTATITCGGDNIATFSVHWYRQKPGQAPVLVVYDDLDRASGIPARFSGSNSGNTATLTISRVEPGDEADYFCQVWEISSDEYVFGPGTSVTVL
notes: also called Variant 1 (STAU-307)
Take B6: the binding result in assay [1] is on record as “binds”.
